{
  "source": "the RNAGym collection of RNA variant scans (doi:10.1073/pnas.2313332121)",
  "parents": {"B1": {"name": "TPR 5TU (parent)", "chain": "GGAUCUUCUCGAUCUAACAAAAAAGACAAAUCUGCCACAAAGCUUGAGAGCAUCUUCGGAUGCAGAGGCGGCAGCCUUCGGUGGCGCGAUAGCGCCAACGUUCUCAACUAUGACACGCAAAACGCGUGCUCCGUUGAAUGGAGUUUAUCAUG"}},
  "note": "This sample holds only a part of the variants without activity.",
  "data": [
    {"variants_of": "B1", "assay": "polymerase ribozyme fitness, log enrichment relative to wild type (log ratio); higher = more active; in vitro selection for triplet polymerase activity", "in_short": "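Each subunit of a heterodimeric triplet polymerase ribozyme was represented by a PCR-built, transcribed mutant library that underwent triplicate single-round in vitro selection with frozen incubation at −7 °C. Extended constructs were recovered by gel excision, streptavidin-bead capture and RT-PCR, and Illumina sequencing of input and output libraries kept genotypes with ≥10 input reads and ≥1 read per output. Fitness is the logarithm of genotype enrichment relative to wild-type enrichment, from inverse-variance-weighted replicate averages, with a logarithm base of 2.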", "values": [
      {"variant": "A40U A120U G133C", "polymerase ribozyme fitness (log ratio)": -1.72},
      {"variant": "A39U C43U U61A U135G G136A", "polymerase ribozyme fitness (log ratio)": "≤ -4.2"},
      {"variant": "A40U U109A", "polymerase ribozyme fitness (log ratio)": -1.86},
      {"variant": "A40C U44A U102C U139A A142G A147C U148A A150G", "polymerase ribozyme fitness (log ratio)": "≤ -4.2"},
      {"variant": "A40C C57U", "polymerase ribozyme fitness (log ratio)": 0.521},
      {"variant": "A39U A60U G70A", "polymerase ribozyme fitness (log ratio)": "≤ -4.2"},
      {"variant": "A39U C93U", "polymerase ribozyme fitness (log ratio)": -3.36},
      {"variant": "C38G C85A G94U C103G", "polymerase ribozyme fitness (log ratio)": -2.31},
      {"variant": "A40U G50C C57U U82A", "polymerase ribozyme fitness (log ratio)": -2.79},
      {"variant": "A40G C93U C99U", "polymerase ribozyme fitness (log ratio)": -4.16},
      {"variant": "A39C C87U", "polymerase ribozyme fitness (log ratio)": -2.12},
      {"variant": "C38U C96A G141A", "polymerase ribozyme fitness (log ratio)": -0.0442},
      {"variant": "A39U G141U", "polymerase ribozyme fitness (log ratio)": -1.56},
      {"variant": "A40G C54U C96U G141U", "polymerase ribozyme fitness (log ratio)": -2.2},
      {"variant": "A39G A49U U55A U56A A91U", "polymerase ribozyme fitness (log ratio)": "≤ -4.2"},
      {"variant": "A40U G92A A120U C132A G141C", "polymerase ribozyme fitness (log ratio)": "≤ -4.2"},
      {"variant": "A40C G50U C69G C116U", "polymerase ribozyme fitness (log ratio)": -3.24},
      {"variant": "A40G U56A G67A G83A", "polymerase ribozyme fitness (log ratio)": "≤ -4.2"},
      {"variant": "C38A U44A A47U G86U C87G G100A A107G C118U", "polymerase ribozyme fitness (log ratio)": "≤ -4.2"},
      {"variant": "A40U A60G A66U A73G A91G C99G", "polymerase ribozyme fitness (log ratio)": "≤ -4.2"},
      {"variant": "A39U C63U C75G C76A C87G C105U C129U G143C", "polymerase ribozyme fitness (log ratio)": "≤ -4.2"},
      {"variant": "A39G G84U U127A", "polymerase ribozyme fitness (log ratio)": "≤ -4.2"},
      {"variant": "A40U C95U", "polymerase ribozyme fitness (log ratio)": -1.07},
      {"variant": "A39U U53A C85A", "polymerase ribozyme fitness (log ratio)": "≤ -4.2"},
      {"variant": "A40U U56A C75G", "polymerase ribozyme fitness (log ratio)": -3.97},
      {"variant": "A40G G58C G94A G141A", "polymerase ribozyme fitness (log ratio)": -3.65},
      {"variant": "C38U G81A C87G C95U C96A A97G A138C G141U", "polymerase ribozyme fitness (log ratio)": "≤ -4.2"},
      {"variant": "C38G G92C C95U", "polymerase ribozyme fitness (log ratio)": -1.62},
      {"variant": "C38U G70A C95A C99U A107U", "polymerase ribozyme fitness (log ratio)": "≤ -4.2"},
      {"variant": "A39C U44C C93U C108G A121C U139G", "polymerase ribozyme fitness (log ratio)": "≤ -4.2"},
      {"variant": "A40U A60C C72U G84U", "polymerase ribozyme fitness (log ratio)": -2.77},
      {"variant": "A39G A47C", "polymerase ribozyme fitness (log ratio)": -1.49},
      {"variant": "C38U C105G G141U", "polymerase ribozyme fitness (log ratio)": -1.54},
      {"variant": "A39G A41G G46C C51G U56A A60C C72U A97G U111C C125A", "polymerase ribozyme fitness (log ratio)": "≤ -4.2"},
      {"variant": "A40U G94A G126A", "polymerase ribozyme fitness (log ratio)": -0.19},
      {"variant": "A39U U53A G86U", "polymerase ribozyme fitness (log ratio)": -3.7},
      {"variant": "A40U C85U", "polymerase ribozyme fitness (log ratio)": -0.107},
      {"variant": "A39G A47G G83A A142G", "polymerase ribozyme fitness (log ratio)": "≤ -4.2"},
      {"variant": "A40U G42A C63U C114U A119C G141U G143A", "polymerase ribozyme fitness (log ratio)": "≤ -4.2"},
      {"variant": "A40C U55G C63U C93U", "polymerase ribozyme fitness (log ratio)": -0.65},
      {"variant": "A39G A41G A73G G86C G92U", "polymerase ribozyme fitness (log ratio)": "≤ -4.2"},
      {"variant": "A40C C85G", "polymerase ribozyme fitness (log ratio)": -1.95},
      {"variant": "A40U G152U", "polymerase ribozyme fitness (log ratio)": -3.71},
      {"variant": "C38G U55A C96A A150G", "polymerase ribozyme fitness (log ratio)": -2.63},
      {"variant": "A39U A40U C54U G84C C85A G92C G128A", "polymerase ribozyme fitness (log ratio)": "≤ -4.2"},
      {"variant": "A40G C54G G126A", "polymerase ribozyme fitness (log ratio)": -3.46},
      {"variant": "A39C G80U C114U", "polymerase ribozyme fitness (log ratio)": "≤ -4.2"},
      {"variant": "A39U U144C", "polymerase ribozyme fitness (log ratio)": -2.52},
      {"variant": "A40G C54A G68A G92A", "polymerase ribozyme fitness (log ratio)": "≤ -4.2"},
      {"variant": "A39G G83A G117U A120C G152U", "polymerase ribozyme fitness (log ratio)": -4.11},
      {"variant": "A40U G92C A147C", "polymerase ribozyme fitness (log ratio)": -0.761},
      {"variant": "A40C A52C G81A G83A C93G", "polymerase ribozyme fitness (log ratio)": "≤ -4.2"},
      {"variant": "A40C G67C G71C A98G C103A C105G", "polymerase ribozyme fitness (log ratio)": "≤ -4.2"},
      {"variant": "A40U G92A A119C A120C U148G", "polymerase ribozyme fitness (log ratio)": "≤ -4.2"},
      {"variant": "A40C U55G G59C C75A U82G C96G U111G U148A A150C", "polymerase ribozyme fitness (log ratio)": "≤ -4.2"},
      {"variant": "A40G A41U U53A C123A C125U U134G", "polymerase ribozyme fitness (log ratio)": -3.73},
      {"variant": "A39C G84A C85G U90G A91G U111A", "polymerase ribozyme fitness (log ratio)": "≤ -4.2"},
      {"variant": "A39C A40G A49C G80U G86U A106C A150C", "polymerase ribozyme fitness (log ratio)": "≤ -4.2"},
      {"variant": "C38A G58A A60G C93U C95A C125G", "polymerase ribozyme fitness (log ratio)": -3.67},
      {"variant": "A39U U53A U56C A60C U61A G86U A89G", "polymerase ribozyme fitness (log ratio)": -4.17},
      {"variant": "C38G G68C C85G G126A U139G G140A C149G", "polymerase ribozyme fitness (log ratio)": "≤ -4.2"},
      {"variant": "A39C A49G", "polymerase ribozyme fitness (log ratio)": -3.48},
      {"variant": "C38U C51U C76A C79A A97U G100A C103G A106G A120G", "polymerase ribozyme fitness (log ratio)": "≤ -4.2"},
      {"variant": "C38U", "polymerase ribozyme fitness (log ratio)": 0.0316},
      {"variant": "C38G", "polymerase ribozyme fitness (log ratio)": -0.296},
      {"variant": "A40U U82A C95G", "polymerase ribozyme fitness (log ratio)": -1.43},
      {"variant": "A39G A115C", "polymerase ribozyme fitness (log ratio)": -3.17},
      {"variant": "A39U G80A C123G", "polymerase ribozyme fitness (log ratio)": -2.65},
      {"variant": "A40U A89C", "polymerase ribozyme fitness (log ratio)": -0.129},
      {"variant": "C38U C57G C75U G86A U148A", "polymerase ribozyme fitness (log ratio)": "≤ -4.2"},
      {"variant": "A40U A60G", "polymerase ribozyme fitness (log ratio)": 0.828},
      {"variant": "A40U A60U", "polymerase ribozyme fitness (log ratio)": -0.238},
      {"variant": "A39U A91U", "polymerase ribozyme fitness (log ratio)": "≤ -4.2"},
      {"variant": "C38G U44A G65C", "polymerase ribozyme fitness (log ratio)": "≤ -4.2"},
      {"variant": "A39U A60U U146A", "polymerase ribozyme fitness (log ratio)": -3.58},
      {"variant": "A39C G58C A97U A98C C125U", "polymerase ribozyme fitness (log ratio)": -3.95},
      {"variant": "C38U G83C C132A", "polymerase ribozyme fitness (log ratio)": "≤ -4.2"},
      {"variant": "C38G A49U U55A C87A G126A G143C", "polymerase ribozyme fitness (log ratio)": "≤ -4.2"},
      {"variant": "C38U A40G", "polymerase ribozyme fitness (log ratio)": -2.26},
      {"variant": "A40U C57A G58C C79G", "polymerase ribozyme fitness (log ratio)": -3.81},
      {"variant": "A40U A60G A89U U134C", "polymerase ribozyme fitness (log ratio)": -0.16},
      {"variant": "A39G U55G G83C G88C G100C G140U G141A U145G", "polymerase ribozyme fitness (log ratio)": "≤ -4.2"},
      {"variant": "C38U C85U A107U C125G A147C", "polymerase ribozyme fitness (log ratio)": "≤ -4.2"}
    ]}
  ]
}
